We go through 2 proteins from PMC9765439, “Systems-Wide Dissection of Organic Acid Assimilation in Pseudomonas aeruginosa Reveals a Novel Path To Underground Metabolism” (mBio, 2022).

The term stoichiometry N denotes a count of units in the complex or per binding partner.

Data set [1] concerns the molecule itself. As to the kind of experiment: crystal structure; GltA apo, 20 to 25 mg/mL, sitting drop vapor diffusion, 19°C.
Data set [2] deals with the molecule itself. Briefly: crystal structure; PrpC apo and oxaloacetate-bound (2.5 mM oxaloacetate) crystals; sitting drop, 100 to 200 mM Bis-Tris pH 5.5, 20 to 30% PEG 3350, 0.1% D-xylose, 19°C.

B1: citrate synthase GltA from Pseudomonas aeruginosa (enzyme, UniProt P14165 1-428, looked up)
chain: MADKKAQLIIEGSAPVELPVLSGTMGPDVVDVRGLTATGHFTFDPGFMSTASCESKITYIDGDKGVLLHRGYPIEQLAEKSDYLETCYLLLNGELPTAAQKEQFVGTIKNHTMVHEQLKTFFNGFRRDAHPMAVMCGVIGALSAFYHDSLDINNPKHREVSAHRLIAKMPTIAAMVYKYSKGEPMMYPRNDLNYAENFLHMMFNTPCETKPISPVLAKAMDRIFILHADHEQNASTSTVRLAGSSGANPFACIASGIAALWGPAHGGANEAVLRMLDEIGDVSNIDKFVEKAKDKNDPFKLMGFGHRVYKNFDPRAKVMKQTCDEVLQELGINDPQLELAMKLEEIARHDPYFVERNLYPNVDFYSGIILKAIGIPTSMFTVIFALARTVGWISHWQEMLSGPYKIGRPRQLYTGHTQRDFTALKDRG
notes: citrate synthase GltA of Pseudomonas aeruginosa; PCR-amplified ORF of gltA cloned into pET-19m; printed length 429 amino acids; The hexamer is that of the crystal's asymmetric unit; also called GltAPa; citrate (CIT) synthase; source: E. coli, purified (Ni-NTA, His6 tag cleaved with TEV protease); not shown: His6, N-terminal, cleaved
As for B1, in data set [1], the “stoichiometry N” value turned out to be 6.

B2: 2-methylcitrate synthase PrpC from Pseudomonas aeruginosa (enzyme)
chain: MAEAKVLSGAGLRGQVAGQTALSTVGQEGAGLTYRGYDVRDLAAAAIFEEVAYLLLYGELPNKQQLDAYLKKLQGQRDLPQALKEVLERIPKDAHPMDVMRTGASVLGTLEPELSFDQQRDVADRLLAAFPAIMTYWYRFTHEGQRIDCNSDEPTIGGHFLALLHGKKPSELHVKVMNVSLILYAEHEFNASTFTARVCASTLSDLYSCVTGAIGSLRGPLHGGANEAAMELIERFSSPQEATAELLKMLERKDKIMGFGHAIYKDSDPRNEVIKGWSKQLADEVGDKVLFAVSEAIDKTMWEQKKLFPNADFYHASAYHFMGIPTKLFTPIFVCSRTSGWTAHVFEQRANNRIIRPSAEYTGVEQRAFVPLEQR
notes: 2-methylcitrate synthase PrpC of Pseudomonas aeruginosa; PCR-amplified ORF of prpC cloned into pET-19m; printed length 376 amino acids, theoretical monomer mass 41.7 kDa; also called PrpCPa; 2-MCS; source: E. coli, purified (Ni-NTA, His6 tag cleaved with TEV protease); not shown: His6, N-terminal, cleaved
In the case of B2, the “stoichiometry N” value in data set [2] stood at 2.
